Measurements taken from article doi:10.1101/2021.03.01.433494 (bioRxiv, 2021).

B1: Ab49 (human monoclonal anti-M protein IgG) (antibody, V domains shown)
VH: EVQLVESGGGLVQPGGSLRLSCAASGFTVSINYMSWVRQAPGKGLQWVSVIYSGGSTYYADSVKGRFTISRDNSKNTLYLQMNSLRAEDTAMYYCVRDSRFWGIFDYWGQGTLVTVSS
VL: EIVLTQSPATLSLSPGERATLSCRASQSVSSYLAWYQRKPGQAPRLLIYDASNRATGIPARFSGSGSGTDFTLTISSLEPEDFAVYYCQQRSNWPPTFGQGTKVEIK
B2: Ab49 single Fab (IgdE-cleaved Ab49) (Fab, V domains shown)
VH: EVQLVESGGGLVQPGGSLRLSCAASGFTVSINYMSWVRQAPGKGLQWVSVIYSGGSTYYADSVKGRFTISRDNSKNTLYLQMNSLRAEDTAMYYCVRDSRFWGIFDYWGQGTLVTVSS
VL: EIVLTQSPATLSLSPGERATLSCRASQSVSSYLAWYQRKPGQAPRLLIYDASNRATGIPARFSGSGSGTDFTLTISSLEPEDFAVYYCQQRSNWPPTFGQGTKVEIK
B3: Ab32 (human monoclonal anti-M protein IgG) (antibody, V domains shown)
VH: EVQLVESGGGLVRPGGSLRLSCVASGFMFNEYYMSWIRQAPGKGLEWISFISNAGTYTNYAESVKGRFTISRDNAKDSLYLEMNSLRGEDTAVYYCARQGFDTRGEDAFEIWGQGTMVTVSS
VL: EIVLTQSPATLSLSPGERATLSCRASQPLSGYLAWYQQKPGQAPRLLIYNASKRATGIPARFTGSGSGTDFTLTISSLESEDFAVYYCQQRSGWPSIFTFGPGTKVDIK

Legend:
[1] = target: T1, M1 protein on the surface of Streptococcus pyogenes strain SF370 (Streptococcus pyogenes SF370 (emm1), UniProt Q99XV0, strain); experiment: flow cytometry on cells
[2] = target: T1, M1 protein on the surface of …; experiment: far-Western, overlay or dot blot

Binder | binding result [1] | binding result [2]
B1 | binds | 
B2 | binds | 
B3 |  | binds
